US20160115467A1 (Biogen, published 2016)
Where a chain is given by its changes, count along the chain named. Blank lines part the entries; values can stand above or below the binder they belong to.

Key:
[1] = biological target: T1, human GPIIb/IIIa on human platelets (human, UniProt P08514 32-1039; P05106 27-788); test: flow cytometry, hybridoma supernatant on human platelets
T1 construct: Native receptor on gel-purified human platelets or platelets in diluted human whole blood; also called platelets in human whole blood
Method: Hybridomas were then screened for binding to human and cynomolgus monkey platelets using flow cytometry, and for binding to GPIIb/IIIa using Enzyme-linked immunosorbent assays (ELISA). To determine binding to human and money platelets, gel-purified human or monkey (cynomolgus) platelets in Tyrode's buffer were incubated with hybridoma supernatant. Following a 30 minute incubation, cells were fixed in 1% formaldehyde. Following fixation, cells were washed in Tyrode's buffer and a detection antibody was added (Jackson Immunoresearch goat anti-mouse IgG-PE conjugated). Antibody binding was detected by flow cytometry.

[2] = biological target: T1, human GPIIb/IIIa on human platelets; test: flow cytometry, protein spiked in diluted (1:50) human whole blood, FITC-anti-FVII on CD42b-stained platelets
[3] = biological target: T2, mouse platelets (mouse GPIIb/IIIa) (mouse, UniProt Q9QUM0 32-1033; O54890 26-787); test: binding to platelets in mouse blood (method not detailed; flow cytometry implied)
T2 construct: whole, on cells; the receptor is inferred from the antibody's target
T2 sequence (Q9QUM0 32-1033, chain 1 of 2): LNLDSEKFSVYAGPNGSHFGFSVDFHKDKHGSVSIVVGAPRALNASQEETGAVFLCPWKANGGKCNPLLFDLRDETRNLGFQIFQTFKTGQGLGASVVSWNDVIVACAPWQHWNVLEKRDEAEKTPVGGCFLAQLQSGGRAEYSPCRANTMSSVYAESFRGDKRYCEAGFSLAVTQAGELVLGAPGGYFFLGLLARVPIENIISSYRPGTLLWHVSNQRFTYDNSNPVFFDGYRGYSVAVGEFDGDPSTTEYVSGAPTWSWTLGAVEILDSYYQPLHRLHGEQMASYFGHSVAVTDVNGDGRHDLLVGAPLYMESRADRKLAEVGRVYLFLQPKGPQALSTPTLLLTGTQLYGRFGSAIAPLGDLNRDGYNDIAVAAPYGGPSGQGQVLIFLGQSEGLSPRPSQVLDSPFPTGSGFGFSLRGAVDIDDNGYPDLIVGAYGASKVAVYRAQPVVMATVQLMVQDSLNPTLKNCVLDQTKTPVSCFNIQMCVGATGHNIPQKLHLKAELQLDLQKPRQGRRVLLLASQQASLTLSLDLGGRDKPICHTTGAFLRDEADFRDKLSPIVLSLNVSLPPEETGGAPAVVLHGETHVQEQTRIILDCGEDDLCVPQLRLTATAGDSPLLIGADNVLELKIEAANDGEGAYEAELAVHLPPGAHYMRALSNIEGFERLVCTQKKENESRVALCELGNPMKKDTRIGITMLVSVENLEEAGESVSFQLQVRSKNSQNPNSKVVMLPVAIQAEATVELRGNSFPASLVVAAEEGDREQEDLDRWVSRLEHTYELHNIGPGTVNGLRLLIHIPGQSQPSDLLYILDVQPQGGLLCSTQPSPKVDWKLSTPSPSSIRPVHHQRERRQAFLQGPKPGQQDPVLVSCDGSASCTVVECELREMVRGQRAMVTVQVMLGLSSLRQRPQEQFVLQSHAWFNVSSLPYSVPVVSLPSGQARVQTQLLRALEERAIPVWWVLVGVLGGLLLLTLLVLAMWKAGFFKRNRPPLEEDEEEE
T2 sequence (O54890 26-787, chain 2 of 2): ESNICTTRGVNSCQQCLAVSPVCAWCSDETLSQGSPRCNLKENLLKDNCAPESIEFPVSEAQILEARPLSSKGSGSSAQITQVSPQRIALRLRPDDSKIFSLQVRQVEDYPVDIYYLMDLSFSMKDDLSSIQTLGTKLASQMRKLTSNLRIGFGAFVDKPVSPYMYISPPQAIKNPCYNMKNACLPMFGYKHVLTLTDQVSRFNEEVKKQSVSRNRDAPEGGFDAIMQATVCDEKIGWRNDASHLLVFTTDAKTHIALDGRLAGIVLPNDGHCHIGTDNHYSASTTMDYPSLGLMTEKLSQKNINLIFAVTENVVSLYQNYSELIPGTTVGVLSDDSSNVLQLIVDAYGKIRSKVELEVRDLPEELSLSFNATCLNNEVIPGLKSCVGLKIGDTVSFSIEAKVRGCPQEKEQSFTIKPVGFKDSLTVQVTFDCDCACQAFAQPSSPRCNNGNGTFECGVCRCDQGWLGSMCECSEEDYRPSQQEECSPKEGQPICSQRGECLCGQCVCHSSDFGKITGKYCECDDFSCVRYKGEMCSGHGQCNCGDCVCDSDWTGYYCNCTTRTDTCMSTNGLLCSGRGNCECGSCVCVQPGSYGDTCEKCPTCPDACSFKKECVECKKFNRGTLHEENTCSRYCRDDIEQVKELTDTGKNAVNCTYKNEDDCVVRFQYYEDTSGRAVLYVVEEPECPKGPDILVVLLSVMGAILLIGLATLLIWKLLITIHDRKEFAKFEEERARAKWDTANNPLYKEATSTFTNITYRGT

binding result [1]: binds
B1: 12B2 (antibody, V domains shown)
VH: QVQLQQSGAELTKPGASVKISCKATGYTFSSYWIEWVKQRPGHGLEWIGEILPGSGITKYNDKFKGKATFTADTSSNTAYMQLSSLTSEDSAVYSCARLISYYYAMDYWGQGTSVTVSS
VL: DIQMTQTTSSLSASLGDRVTISCRASQDISNYLNWYQQKPDGTVKLLIYYTSRLHSGVPSRFSGSGSGTDYSLTISNLEQEDIATYFCQQGNTLPPTFGGGTKLEIKR
notes: Mouse monoclonal from BALB/c hybridoma, tested as hybridoma supernatant; also called 12B2 antibody

binding result [1]: binds
B2: 1H6 (antibody, V domains shown)
VH: QVQLQQSGAELVRPGTSVKVSCKASGYAFTNYLIEWVKQRPGQGLEWIGVINPGSGGTNYNEKFKGKATLTADKSSSTAYMHLSSLTSDDSAVYFCARGRYEWYFDVWGAGTTVTVSS
VL: B1 VL with S30T, Q38R, N92Y, P96Y
notes: Mouse monoclonal from BALB/c hybridoma, tested as hybridoma supernatant; also called 1H6 antibody

binding result [1]: binds
B3: 38A8 (antibody, V domains shown)
VH: B2 VH with V37I, H82Q
VL: B1 VL with Q37L, T74S, N92Y, P96Y
notes: Mouse monoclonal from BALB/c hybridoma, tested as hybridoma supernatant; also called 38A8 antibody

binding result [2]: no binding
B4: rFVIIa (enzyme)
chain 1: ANAFLEELRPGSLERECKEEQCSFEEAREIFKDAERTKLFWISYSDGDQCASSPCQNGGSCKDQLQSYICFCLPAFEGRNCETHKDDQLICVNENGGCEQYCSDHTGTKRSCRCHEGYSLLADGVSCTPTVEYPCGKIPILEKRNASKPQGR
chain 2: IVGGKVCPKGECPWQVLLLVNGAQLCGGTLINTIWVVSAAHCFDKIKNWRNLIAVLGEHDLSEHDGDEQSRRVAQVIIPSTYVPGTTNHDIALLRLHQPVVLTDHVVPLCLPERTFSERTLAFVRFSLVSGWGQLLDRGATALELMVLNVPRLMTQDCLQQSRKVGDSPNITEYMFCAGYSDGSKDSCKGDSGGPHATHYRGTWYLTGIVSWGQGCATVGHFGVYTRVSQYIEWLQKLMRSEPRPGVLLRAPFP
notes: Control without targeting moiety

binding result [1]: binds
B5: 18F7 (antibody, V domains shown)
VH: QVQLKESGPGLVAPSQSLSITCTVSGFSLTSYGVSWVRQPPGKGLEWLGIIWGDGSTNYHSVLKSRLSISKDNSKSQVFLKLNSLQTDDTATYYCAKQDFDVWGAGTTVTVSS
VL: DVQMIQSPFSLSASLGDIVTMTCQASQGTSINLNWFQQKPGKAPKLLIYGVSNLEDGVPSRFSGSRYGTDFTLTIGSLEDEDMATYFCLQHSYLPYTFGGGTKLEIKR
notes: Mouse monoclonal from BALB/c hybridoma, tested as hybridoma supernatant; also called 18F7 antibody

binding result [1]: binds
B6: 28F4 (antibody, V domains shown)
VH: EVQLVESGGDLVKPGGSLKLSCAASGFTFSNYGMSWVRQTPDKRLEWVATISSGGTYTYYPDSVKGQFTIFRDNAKNTLYLQMSSLKSEDTAMYYCTRRDYDYEGFAYWGQGTLVTVS
VL: DIVLTQSPATLSVTPGDSVSLSCRASQSISNNLHWYQQKSHESPRLLIKYASHSISGIPSRFSGSGSGTDFTLSINSVETEDFGMYFCQQSNNWPFTFGSGTKLEIKR
notes: Mouse monoclonal from BALB/c hybridoma, tested as hybridoma supernatant; also called 28F4 antibody

binding result [1]: binds
B7: 28C2 (antibody, V domains shown)
VH: QVTLKASGPGIVQPSQTLSLTCSFSGFSLNTSGMGVGWIRQPSGKGLEWLAHIWWDDDKRYNPALKSRLTISKDTSNNQIFLKIASVDTADTATYYCARSHYYGTFYFDYWGQGTTLTVSS
VL: DVQITQSPSYLAASPGETITINCRASKSISKYLAWYQEKPGTTYKLLIYSGSTLQSGIPSRFSGSGSGTDFTLTISSLEPEDFAMYYCQQHIEYPWTFGGGTKLEIKR
notes: Mouse monoclonal from BALB/c hybridoma, tested as hybridoma supernatant; also called 28C2 antibody

binding result [1]: binds
B8: 9D6 (antibody, V domains shown)
VH: QVTLKESGPGILQPSQTLSLTCSFSGFSLSTSGMGVGWIRQSSGKGLEWLAHIWWDDDKRYNPTLKSRLTISKDTSNNQVFLKIANMDTADIATYYCARSHYNGTFYFDFWGQGITLTVSS
VL: B7 VL with T42K, Y44N, S77T
notes: Mouse monoclonal from BALB/c hybridoma, tested as hybridoma supernatant; also called 9D6 antibody

binding result [1]: binds
binding result [3]: no binding
B9: 34D10 (antibody, V domains shown)
VH: EVKLVESGGGLVKPGGSLKLSCAASGFTFSAYAMSWVRQTPEKRLEWVASISSGGTTYYPDSVKRRFTISRDNARNILYLQMSSLRSEDTAMYYCTRGGDYGYALDYWGQGTSVTVSS
VL: ENVLTQSPAIMSASLGEKVTMSCRASSSVNYMYWYQQKSDASPKLWIYYTSNLAPGVPARFSGSGSGNSYSLTISSMEGEDAATYYCQQFSSSPWTFGGGTKLEIKR
notes: Mouse monoclonal from BALB/c hybridoma, tested as hybridoma supernatant (detected with anti-mouse IgG); also called monoclonal antibody 34D10; 34D10 antibody

binding result [1]: binds
B10: 4B11 (antibody, V domains shown)
VH: B9 VH with A31S, E46A, T56N, T57I, Y59F, R65G, N73D, S83R, T96A, L105M
VL: B9 VL with S22N, Y48F, T101S
notes: Mouse monoclonal from BALB/c hybridoma, tested as hybridoma supernatant; also called 4B11 antibody

binding result [1]: binds
B11: 36A8 (antibody, V domains shown)
VH: B9 VH with K3R, A31T, S52N, S53G, T56S, R65G, S83R, T96A
VL: B9 VL with S22N, Y48F, T101S
notes: Mouse monoclonal from BALB/c hybridoma, tested as hybridoma supernatant; also called 36A8 antibody
